The target in the assay is trypsin. Kind of assay: cell-based or functional assay.

The substance “recombinant ulinastatin polypeptide (T17); mature human ulinastatin with S10A mutation, N-linked glycan at N45 and O-linked glycan at T17 (from UniProt P02760 206-352)” had a specific activity of the sample (units of trypsin inhibition) of 5000 U/mg.

Values taken from patent publication US20210277090A1.
